Measurements as given in patent US20170210777A1 (FUJIFILM, published 2017).
Square brackets hold non-standard residues; d marks the D form. Ends that are not written are not given here. peg8 = octa(ethylene glycol) chain, 8 ethylene glycol units

B1: polypeptide Ac-KKKEQQNAFYKKK (SEQ ID NO: 22) (peptide)
peptide: Ac-KKKEQQNAFYKKK
notes: Synthetic peptide, immobilised on a CM5 sensor chip; also called immobilized carrier V
B2: polypeptide as set forth in SEQ ID NO: 10 (EQQSAFY) (peptide)
peptide: EQQSAFY
notes: Synthetic peptide, immobilised on a CM5 sensor chip; also called immobilized carrier J
B3: polypeptide as set forth in SEQ ID NO: 5 (EGQNAFY) (peptide)
peptide: EGQNAFY
notes: Synthetic peptide, immobilised on a CM5 sensor chip; also called immobilized carrier E
B4: polypeptide as set forth in SEQ ID NO: 12 (DQQSAFY) (peptide)
peptide: DQQSAFY
notes: Synthetic peptide, immobilised on a CM5 sensor chip; also called immobilized carrier L
B5: polypeptide as set forth in SEQ ID NO: 14 (EAQQSAFY) (peptide)
peptide: EAQQSAFY
notes: Synthetic peptide, immobilised on a CM5 sensor chip; also called immobilized carrier N
B6: polypeptide as set forth in SEQ ID NO: 17 (DAQQSAFY) (peptide)
peptide: DAQQSAFY
notes: Synthetic peptide, immobilised on a CM5 sensor chip; also called immobilized carrier Q
B7: polypeptide as set forth in SEQ ID NO: 16 (EAQQNAFY) (peptide)
peptide: EAQQNAFY
notes: Synthetic peptide, immobilised on a CM5 sensor chip; also called immobilized carrier P
B8: polypeptide Ac-EQQNAFYK (SEQ ID NO: 20) (peptide)
peptide: Ac-EQQNAFYK
notes: Synthetic peptide, immobilised on a CM5 sensor chip; also called immobilized carrier T
B9: polypeptide H2N-(peg)8-EQQNAFYE (SEQ ID NO: 24) (peptide)
peptide: peg8-EQQNAFYE
notes: Synthetic peptide, immobilised on a CM5 sensor chip; also called immobilized carrier X
B10: polypeptide as set forth in SEQ ID NO: 6 (KKKEQQNAFYKKK) (peptide)
peptide: KKKEQQNAFYKKK
notes: Synthetic peptide, immobilised on a CM5 sensor chip; also called immobilized carrier F
B11: polypeptide Ac-KKKEQQNAFYEILHKKK (SEQ ID NO: 23) (peptide)
peptide: Ac-KKKEQQNAFYEILHKKK
notes: Synthetic peptide, immobilised on a CM5 sensor chip; also called immobilized carrier W
B12: polypeptide as set forth in SEQ ID NO: 8 (EQQNAFYGGGKGGGEQQNAFY) (peptide)
peptide: EQQNAFYGGGKGGGEQQNAFY
notes: Synthetic fusion polypeptide of two EQQNAFY units with a GGGKGGG linker, immobilised on a CM5 sensor chip; also called immobilized carrier H
B13: polypeptide EQQNAFY-NH2 (SEQ ID NO: 19) (peptide)
peptide: EQQNAFY-NH2
notes: Synthetic peptide, immobilised on a CM5 sensor chip; also called immobilized carrier S
B14: polypeptide as set forth in SEQ ID NO: 2 (KEQQNAFY) (peptide)
peptide: KEQQNAFY
notes: Synthetic peptide, immobilised on a CM5 sensor chip; also called immobilized carrier B
B15: polypeptide as set forth in SEQ ID NO: 15 (EQSAFY) (peptide)
peptide: EQSAFY
notes: Synthetic peptide, immobilised on a CM5 sensor chip; also called immobilized carrier O
B16: polypeptide as set forth in SEQ ID NO: 18 (DQSAFY) (peptide)
peptide: DQSAFY
notes: Synthetic peptide, immobilised on a CM5 sensor chip; also called immobilized carrier R
B17: polypeptide as set forth in SEQ ID NO: 9 (EQNAFY) (peptide)
peptide: EQNAFY
notes: Synthetic peptide, immobilised on a CM5 sensor chip; also called immobilized carrier I
B18: polypeptide as set forth in SEQ ID NO: 26 (QQNAFYEI) (peptide)
peptide: QQNAFYEI
notes: Synthetic comparative peptide, immobilised on a CM5 sensor chip; also called immobilized carrier AC
B19: polypeptide as set forth in SEQ ID NO: 11 (EQQSAFYEILH) (peptide)
peptide: EQQSAFYEILH
notes: Synthetic peptide, immobilised on a CM5 sensor chip; also called immobilized carrier K
B20: polypeptide as set forth in SEQ ID NO: 3 (EQQNAFYEILH) (peptide)
peptide: EQQNAFYEILH
notes: Synthetic peptide, immobilised on a CM5 sensor chip; also called immobilized carrier C
B21: polypeptide as set forth in SEQ ID NO: 13 (DQQSAFYEILH) (peptide)
peptide: DQQSAFYEILH
notes: Synthetic peptide, immobilised on a CM5 sensor chip; also called immobilized carrier M
B22: polypeptide as set forth in SEQ ID NO: 7 (KKKEQQNAFYEILHKKK) (peptide)
peptide: KKKEQQNAFYEILHKKK
notes: Synthetic peptide, immobilised on a CM5 sensor chip; also called immobilized carrier G
B23: polypeptide as set forth in SEQ ID NO: 4 (EQQNAFYEILHL) (peptide)
peptide: EQQNAFYEILHL
notes: Synthetic peptide, immobilised on a CM5 sensor chip; also called immobilized carrier D
B24: polypeptide Ac-EQQNAFYEILHK (SEQ ID NO: 21) (peptide)
peptide: Ac-EQQNAFYEILHK
notes: Synthetic peptide, immobilised on a CM5 sensor chip; also called immobilized carrier U
B25: fusion polypeptide Ac-EQQNAFY-(peg)8-K-(peg)8-EQQNAFY (SEQ ID NO: 25) (peptide)
peptide: Ac-EQQNAFY[peg8]K[peg8]EQQNAFY
notes: Synthetic fusion polypeptide, 15 amino acid residues, the two units and the central Lys joined by PEG linkers and not by peptide bonds; immobilised on a CM5 sensor chip; also called immobilized carrier Y
B26: polypeptide as set forth in SEQ ID NO: 1 (EQQNAFY) (peptide)
peptide: EQQNAFY
notes: Synthetic peptide, immobilised on a CM5 sensor chip by EDC/NHS coupling; also called polypeptide 1

target: T1, human IgG antibody (human); assay: SPR (Biacore), ligand immobilised on CM5
T1 construct: Injected at 10 to 3000 nM over the immobilised ligands in SPR

| Binder | koff [s⁻¹] |
| --- | --- |
| B1 | 0.00015 |
| B2 | 0.00015 |
| B3 | 0.0002 |
| B4 | 0.00015 |
| B5 | 0.00014 |
| B6 | 0.00013 |
| B7 | 0.00019 |
| B8 | 0.00014 |
| B9 | 0.00013 |
| B10 | 0.00015 |
| B11 | 0.00016 |
| B12 | 0.00015 |
| B13 | 0.00015 |
| B14 | 0.00013 |
| B15 | 0.00014 |
| B16 | 0.00019 |
| B17 | 0.00017 |
| B18 | 0.00024 |
| B19 | 0.00018 |
| B20 | 0.00017 |
| B21 | 0.00015 |
| B22 | 0.00016 |
| B23 | 0.00013 |
| B24 | 0.00016 |
| B25 | 0.00019 |

target: T1, human IgG antibody; assay: SPR (Biacore), ligand immobilised on CM5, fit with BIAevaluation 4.1

| Binder | koff [s⁻¹] |
| --- | --- |
| B26 | 0.00017 |

target: T2, Bovine Serum Albumin (BSA, manufactured by Sigma-Aldrich) (bovine, UniProt P02769 25-607); assay: SPR, ligand immobilised on CM5, BSA injected 10 min at 25 C
T2 construct: Injected at 1000 nM over the immobilised ligands in SPR (selectivity test)
T2 sequence (P02769 25-607 limits assumed): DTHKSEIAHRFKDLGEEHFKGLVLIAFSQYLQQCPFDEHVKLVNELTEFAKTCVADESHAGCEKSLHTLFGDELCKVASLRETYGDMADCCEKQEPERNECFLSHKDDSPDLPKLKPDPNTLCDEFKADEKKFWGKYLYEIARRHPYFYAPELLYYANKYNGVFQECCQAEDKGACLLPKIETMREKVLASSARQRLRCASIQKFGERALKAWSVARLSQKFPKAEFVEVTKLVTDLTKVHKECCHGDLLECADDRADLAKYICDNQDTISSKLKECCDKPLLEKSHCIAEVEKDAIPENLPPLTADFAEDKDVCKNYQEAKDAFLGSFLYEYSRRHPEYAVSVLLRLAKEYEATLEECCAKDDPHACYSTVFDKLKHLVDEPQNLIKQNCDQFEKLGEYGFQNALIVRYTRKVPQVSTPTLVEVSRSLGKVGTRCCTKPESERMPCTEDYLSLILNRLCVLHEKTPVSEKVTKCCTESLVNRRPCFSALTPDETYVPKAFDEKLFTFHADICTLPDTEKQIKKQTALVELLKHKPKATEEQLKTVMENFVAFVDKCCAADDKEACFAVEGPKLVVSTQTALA

| Binder | binding result |
| --- | --- |
| B1 | no binding (tested: 1000 nM) |
| B26 | no binding (tested: 1000 nM) |
| B2 | no binding (tested: 1000 nM) |
| B3 | no binding (tested: 1000 nM) |
| B4 | no binding (tested: 1000 nM) |
| B5 | no binding (tested: 1000 nM) |
| B6 | no binding (tested: 1000 nM) |
| B7 | no binding (tested: 1000 nM) |
| B8 | no binding (tested: 1000 nM) |
| B9 | no binding (tested: 1000 nM) |
| B10 | no binding (tested: 1000 nM) |
| B11 | no binding (tested: 1000 nM) |
| B12 | no binding (tested: 1000 nM) |
| B13 | no binding (tested: 1000 nM) |
| B14 | no binding (tested: 1000 nM) |
| B15 | no binding (tested: 1000 nM) |
| B16 | no binding (tested: 1000 nM) |
| B17 | no binding (tested: 1000 nM) |
| B19 | no binding (tested: 1000 nM) |
| B20 | no binding (tested: 1000 nM) |
| B21 | no binding (tested: 1000 nM) |
| B22 | no binding (tested: 1000 nM) |
| B23 | no binding (tested: 1000 nM) |
| B24 | no binding (tested: 1000 nM) |
| B25 | no binding (tested: 1000 nM) |
